Patent US7662384B2, “Use of anti-α5β1 antibodies to inhibit cancer cell proliferation” (Facet Biotech Corporation, priority 2004, dated 2010)

Experiments:
Test in all cases: M200 in vitro cell proliferation assay
Type in all cases: cell-based
[1] = test system: ES-2; settings: ES-2 (ovarian), 4-day assay
Procedure: (§1) Cancer cell lines were plated at a density of 2500 cells/well in 96-well plates in IMDM with supplements in the presence or absence of 10% FBS. At the time of plating, cells were challenged with various concentrations M200 or a non-function blocking anti-α5 antibody, VC5. Four days later, cell viability was assessed by the CellTiter 96 AQueous Non-Radioactive Cell Proliferation Assay (Promega) according to the manufacturer's instructions. All growth studies were done at least 3 times in triplicate.

[2] = test system: DU145; settings: DU145 (prostate), 4-day assay
Procedure: as §1

[3] = test system: COLO 357; settings: COLO 357 (pancreas), 4-day assay
Procedure: as §1

[4] = test system: C32; settings: C32 (melanoma), 4-day assay
Procedure: as §1

[5] = test system: HT144; settings: HT144 (melanoma), 4-day assay
Procedure: as §1

[6] = test system: SW1990; settings: 4-day assay
Procedure: as §1

[7] = test system: H460; settings: H460 (lung), 4-day assay
Procedure: as §1

[8] = test system: CAPAN-2; settings: CAPAN-2 (pancreas), 4-day assay
Procedure: as §1

[9] = test system: A498; settings: A498 (renal), 4-day assay
Procedure: as §1

[10] = test system: MIA PACA-2; settings: MIA PACA-2 (pancreas), 4-day assay
Procedure: as §1

[11] = test system: 786-0; settings: 786-0 (renal), 4-day assay
Procedure: as §1

[12] = test system: EKVX; settings: EKVX (lung), 4-day assay
Procedure: as §1

[13] = test system: CHL-1; settings: CHL-1 (melanoma), 4-day assay
Procedure: as §1

[14] = test system: ASPC-1; settings: ASPC-1 (pancreas), 4-day assay
Procedure: as §1

[15] = test system: HCT-116; settings: HCT-116 (colon), 4-day assay
Procedure: as §1

[16] = test system: SN12C; settings: SN12C (renal), 4-day assay
Procedure: as §1

[17] = test system: SW839; settings: SW839 (renal), 4-day assay
Procedure: as §1

[18] = test system: HT1080; settings: HT1080 (fibrosarcoma), 4-day assay
Procedure: as §1

[19] = test system: TK-10; settings: TK-10 (renal), 4-day assay
Procedure: as §1

[20] = test system: A375; settings: A375 (melanoma), 4-day assay
Procedure: as §1

[21] = test system: A2058; settings: A2058 (melanoma), 4-day assay
Procedure: as §1

[22] = test system: CAPAN-1; settings: CAPAN-1 (pancreas), 4-day assay
Procedure: as §1

[23] = test system: UACC-62; settings: UACC-62 (melanoma), 4-day assay
Procedure: as §1

[24] = test system: A549; settings: A549 (lung), 4-day assay
Procedure: as §1

B1: M200: chimeric IgG4 anti-α5β1 antibody derived from IIA1; generic name volociximab (antibody, V domains shown)
VH: MAVLGLLLCLVTFPSCVLSQVQLKESGPGLVAPSQSLSITCTISGFSLTDYGVHWVRQPPGKGLEWLVVIWSDGSSTYNSALKSRMTIRKDNSKSQVFLIMNSLQTDDSAMYYCARHGTYYGMTTTGDALDYWGQGTSVTVSS
VL: MDFQVQIFSFLLISASVIMSRGQIVLTQSPAIMSASLGERVTMTCTASSSVSSNYLHWYQQKPGSAPNLWIYSTSNLASGVPARFSGSGSGTSYSLTISSMEAEDAATYYCHQYLRSPPTFGGGTKLEIKDMSVDMSV
modifications: chimeric antibody
notes: chimeric IgG4 anti-α5β1 antibody derived from IIA1; generic name volociximab
With B1 the “% Growth Inhibition +Serum” value ([1]; 10% FBS) was 0%, the “% Growth Inhibition −Serum” value ([1]; absence of serum) was 0% and the “% Growth Inhibition +Serum” value ([2]; 10% FBS) was 0%. The “% Growth Inhibition −Serum” value ([2]; absence of serum) was 0%, the “% Growth Inhibition +Serum” value ([3]; 10% FBS) was 0% and the “% Growth Inhibition −Serum” value ([3]; absence of serum) was 0%. The “% Growth Inhibition +Serum” value ([4]; 10% FBS) was 0%, the “% Growth Inhibition −Serum” value ([4]; absence of serum) was 0% and the “% Growth Inhibition +Serum” value ([5]; 10% FBS) was 0%. The “% Growth Inhibition −Serum” value ([5]; absence of serum) was 0%, the “% Growth Inhibition +Serum” value ([6]; 10% FBS) was 0% and the “% Growth Inhibition −Serum” value ([6]; absence of serum) was 10%. The “% Growth Inhibition +Serum” value ([7]; 10% FBS) was 0%, the “% Growth Inhibition −Serum” value ([7]; absence of serum) was 40% and the “% Growth Inhibition +Serum” value ([8]; 10% FBS) was 0%. For the same molecule, the “% Growth Inhibition −Serum” value ([8]; absence of serum) was 0%, the “% Growth Inhibition +Serum” value ([9]; 10% FBS) was 0% and the “% Growth Inhibition −Serum” value ([9]; absence of serum) was 5%. The “% Growth Inhibition +Serum” value ([10]; 10% FBS) was 0%, the “% Growth Inhibition −Serum” value ([10]; absence of serum) was 20% and the “% Growth Inhibition +Serum” value ([11]; 10% FBS) was 0%. For the same molecule, the “% Growth Inhibition −Serum” value ([11]; absence of serum) was 10%, the “% Growth Inhibition +Serum” value ([12]; 10% FBS) was 0% and the “% Growth Inhibition −Serum” value ([12]; absence of serum) was 10%. The “% Growth Inhibition +Serum” value ([13]; 10% FBS) was 0%, the “% Growth Inhibition −Serum” value ([13]; absence of serum) was 0% and the “% Growth Inhibition +Serum” value ([14]; 10% FBS) was 0%. For the same molecule, the “% Growth Inhibition −Serum” value ([14]; absence of serum) was 0%, the “% Growth Inhibition +Serum” value ([15]; 10% FBS) was 0% and the “% Growth Inhibition −Serum” value ([15]; absence of serum) was 15%. For the same molecule, the “% Growth Inhibition +Serum” value ([16]; 10% FBS) was 0%, the “% Growth Inhibition −Serum” value ([16]; absence of serum) was 5% and the “% Growth Inhibition +Serum” value ([17]; 10% FBS) was 0%. For the same molecule, the “% Growth Inhibition −Serum” value ([17]; absence of serum) was 30%, the “% Growth Inhibition +Serum” value ([18]; 10% FBS) was 0% and the “% Growth Inhibition −Serum” value ([18]; absence of serum) was 0%. The “% Growth Inhibition +Serum” value ([19]; 10% FBS) was 0%, the “% Growth Inhibition −Serum” value ([19]; absence of serum) was 0% and the “% Growth Inhibition +Serum” value ([20]; 10% FBS) was 0%. For the same molecule, the “% Growth Inhibition −Serum” value ([20]; absence of serum) was 5%, the “% Growth Inhibition +Serum” value ([21]; 10% FBS) was 0% and the “% Growth Inhibition −Serum” value ([21]; absence of serum) was 0%. For the same molecule, the “% Growth Inhibition +Serum” value ([22]; 10% FBS) was 0%, the “% Growth Inhibition −Serum” value ([22]; absence of serum) was 0% and the “% Growth Inhibition +Serum” value ([23]; 10% FBS) was 0%. The “% Growth Inhibition −Serum” value ([23]; absence of serum) was 0%, the “% Growth Inhibition +Serum” value ([24]; 10% FBS) was 0% and the “% Growth Inhibition −Serum” value ([24]; absence of serum) was 40%.
